# Experimental data as given in PMC12075686, “Structural basis of phosphorylation-independent nuclear import of CIRBP by TNPO3” (Nature Communications, 2025).
# Where two headings read alike, the source gives them in different places. No end group written: not given here.
# T1: TNPO3 WT (Homo sapiens, UniProt Q9Y5L0)
# T1 sequence (Q9Y5L0 1-923): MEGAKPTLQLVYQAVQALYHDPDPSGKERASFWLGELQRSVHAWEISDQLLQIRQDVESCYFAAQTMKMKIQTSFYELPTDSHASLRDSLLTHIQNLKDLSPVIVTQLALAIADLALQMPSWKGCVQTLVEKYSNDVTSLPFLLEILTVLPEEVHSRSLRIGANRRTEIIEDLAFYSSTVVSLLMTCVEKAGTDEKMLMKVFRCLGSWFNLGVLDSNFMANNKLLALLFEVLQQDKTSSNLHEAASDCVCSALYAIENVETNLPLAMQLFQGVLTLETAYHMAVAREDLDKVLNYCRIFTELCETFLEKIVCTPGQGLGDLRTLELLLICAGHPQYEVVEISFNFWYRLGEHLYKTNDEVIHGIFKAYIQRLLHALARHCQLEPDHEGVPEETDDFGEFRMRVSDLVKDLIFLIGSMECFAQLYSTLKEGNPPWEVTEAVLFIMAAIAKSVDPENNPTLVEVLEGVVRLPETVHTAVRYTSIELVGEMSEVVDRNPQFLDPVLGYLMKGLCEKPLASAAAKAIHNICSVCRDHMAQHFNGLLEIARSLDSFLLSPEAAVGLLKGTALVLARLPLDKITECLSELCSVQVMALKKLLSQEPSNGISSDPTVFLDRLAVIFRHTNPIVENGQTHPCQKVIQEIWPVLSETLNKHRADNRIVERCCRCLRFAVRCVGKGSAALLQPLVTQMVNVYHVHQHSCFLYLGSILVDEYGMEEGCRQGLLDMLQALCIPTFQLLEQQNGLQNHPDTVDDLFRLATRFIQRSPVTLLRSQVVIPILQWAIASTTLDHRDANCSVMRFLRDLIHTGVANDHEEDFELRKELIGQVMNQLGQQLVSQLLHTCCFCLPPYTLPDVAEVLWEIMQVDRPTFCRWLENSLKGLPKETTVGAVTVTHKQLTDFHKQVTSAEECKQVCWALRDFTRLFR
# T2: Transportin 3 (TNPO3), full-length wild type (human, UniProt Q9Y5L0 1-923)
# T2 construct: Transportin 3 (TNPO3), human, full-length wild type; For the NMR experiments made 15N-labelled with 13C-methyl labelling of isoleucine and methionine side chains ([IM-methyl 13C]); Vector pETM11-His6-protein A with a TEV site downstream of the protein A tag; also called TNPO3 WT; TNPO3 FL WT; source: E. coli BL21-(DE3) Star, purified (Ni-NTA, TEV cleavage, second Ni-NTA, SEC Superdex 200); not …
# T2 sequence (looked up): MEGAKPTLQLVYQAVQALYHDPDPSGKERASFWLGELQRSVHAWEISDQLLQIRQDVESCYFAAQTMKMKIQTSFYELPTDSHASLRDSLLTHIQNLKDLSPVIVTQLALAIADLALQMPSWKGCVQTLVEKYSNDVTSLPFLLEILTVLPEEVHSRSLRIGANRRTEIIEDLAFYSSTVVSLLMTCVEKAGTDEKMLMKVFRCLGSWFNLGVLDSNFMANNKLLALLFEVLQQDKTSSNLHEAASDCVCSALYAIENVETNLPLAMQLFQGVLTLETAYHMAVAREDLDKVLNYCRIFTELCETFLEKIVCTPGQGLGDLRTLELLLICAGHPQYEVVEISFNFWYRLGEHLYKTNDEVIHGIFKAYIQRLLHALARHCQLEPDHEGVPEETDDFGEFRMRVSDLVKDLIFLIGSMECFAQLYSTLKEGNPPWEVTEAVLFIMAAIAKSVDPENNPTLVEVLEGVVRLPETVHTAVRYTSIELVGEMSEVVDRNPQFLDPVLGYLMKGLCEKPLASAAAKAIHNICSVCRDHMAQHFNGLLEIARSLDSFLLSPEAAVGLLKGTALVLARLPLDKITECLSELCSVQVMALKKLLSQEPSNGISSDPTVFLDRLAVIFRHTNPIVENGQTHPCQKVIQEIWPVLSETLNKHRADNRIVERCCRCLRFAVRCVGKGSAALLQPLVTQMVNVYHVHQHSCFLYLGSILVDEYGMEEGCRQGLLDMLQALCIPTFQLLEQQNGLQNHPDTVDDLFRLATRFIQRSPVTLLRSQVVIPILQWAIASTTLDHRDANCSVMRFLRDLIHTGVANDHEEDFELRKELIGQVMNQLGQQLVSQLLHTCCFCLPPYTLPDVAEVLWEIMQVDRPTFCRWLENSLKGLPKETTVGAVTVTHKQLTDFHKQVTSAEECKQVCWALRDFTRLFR
# B1: P5CS (3-20) synthetic peptide (peptide, UniProt P54886 3-20, looked up)
# peptide: SQVYRCGFQPFNQHLLPW
# notes: Delta-1-pyrroline-5-carboxylate synthase (P5CS), human, residues 3-20; also called P5CS^RSY (3–20); delta-1-pyrroline-5-carboxylate synthase; source: synthetic peptide (Peptide Specialty Laboratories GmbH)
# Key:
# [1] = molecular target: Transportin 3 (TNPO3), full-length wild type (human) (UniProt Q9Y5L0); test: ITC; 100 µM ligand in the syringe injected (28 x 10 µL) into 10 µM TNPO3 (WT or C511A) in the cell; 25 °C; 50 mM Tris-HCl pH 7.5, 150 mM NaCl, 2 mM TCEP, 0.04% NaN3
# [2] = molecular target: CPSF6 RS-NLS (Homo sapiens) (UniProt Q16630); test: FP; details: cited from earlier work
# [3] = molecular target: SRSF1 RS-NLS (Homo sapiens) (UniProt Q07955); test: FP; details: cited from earlier work
# TNPO3 WT = molecular target: T1, TNPO3 WT; test: ITC, ligand titrated into TNPO3 WT; type: binding; details: ITC, TNPO3 WT; for Kd: 25 °C, pH 7.5, read-out: TNPO3 binding Kd
# Description: ITC has been performed by a Malvern Microcal VP-ITC at 25 °C for all binding studies. Samples have been dissolved in Tris buffer containing 50 mM Tris–HCl, 150 mM NaCl, 2 mM TCEP, and 0.04% NaN3 at pH 7.5. Binding studies of CIRBP^RSY and SRSF1^RS were performed with TNPO3 WT, and studies of CIRBP (157–172) and its mutants/phosphorylations were performed with TNPO3 C511A, respectively. Injection has been carried out by a syringe containing ligand solution of 100 μM, which adds ligand step-wise into the cell containing 10 μM TNPO3 during 28 injections of 10 μL each. Data analysis, curve fitting, and calculation of Kd, ΔH, and ΔS have been carried out using Origin-based 7.0 software provided by the manufacturer. All replicated ITC data are shown in Supplementary Fig. 6 and Supplementary Table 1.
# TNPO3 = test: NMR binding studies with TNPO3 (1H-15N HSQC, 1H-13C HMQC, 1H 1D, STD); set-up: species or system human; details: pH 6.7
# Description: All NMR studies for TNPO3 were carried out using the wild type protein. Protein samples for ^1H-^13C HMQC were prepared at a concentration of 100 μM and equilibrated in a buffer containing 50 mM Tris–HCl, pH 6.7, 150 mM NaCl, 2 mM TCEP and 10% D2O. Spectral acquisitions for TNPO3 free and in complex with CIRBP^RSY and SRSF1^RS, respectively were performed at 298 K on a 700 MHz Bruker Avance III NMR spectrometer equipped with a TCI triple-resonance cryoprobe. The pulse program was sfhmqcf2gpph and the spectra were recorded with 32 scans, interscan delay of 1 s, 160 points in F1, 1024 points in F2, 5283.879 Hz spectral width in F1, and 11,160.714 Hz spectral width in F2. Spectra were processed using Topspin 4.1.3.
# Spectral acquisitions for TNPO3 free and in complex with mCIRBP^RSY, pCIRBP^RSY, and pSRSF1^RS, respectively, were performed at 298 K on a 600 MHz Bruker Avance Neo NMR spectrometer equipped with a TXI 600S3 probehead. The pulse program was hmqcgpphwg and the spectra were recorded with 64 scans, interscan delay of 1 s, 200 points in F1, 1024 points in F2, 4545.455 Hz spectral width in F1, and 7812.500 Hz spectral width in F2. Spectra were processed using Topspin 4.3.0.
# For ^1H-^15N HSQC spectra, protein samples were equilibrated in a buffer containing 50 mM Tris–HCl, pH 6.7, 150 mM NaCl, 2 mM TCEP, 0.04% NaN3, and 10% D2O (with additional 20 mM MgCl2 for CIRBP phosphorylation kinetics). Data were recorded at 298 K on the 600 MHz Bruker Avance Neo NMR spectrometer equipped with a TXI 600S3 probehead. The pulse program was hsqcetfpf3gpsi and was recorded with 8-16 scans, interscan delay of 1 s, 128 points in F1, 1024 points in F2, 1949.318 Hz spectral width in F1, and 9615.385 Hz spectral width in F2. Spectra were processed using Topspin 4.3.0.
# [4] = molecular target: T2, Transportin 3 (TNPO3), full-length wild …; test: NMR titration; 1H NMR spectra of 50 µM peptide free and with a stoichiometric amount (50 µM) of TNPO3 WT; line broadening of peptide signals; details: both partners purified
# SRSF1 RS-NLS (Homo sapiens), sequence (Q07955 198-227): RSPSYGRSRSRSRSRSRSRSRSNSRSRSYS
# CPSF6 RS-NLS (Homo sapiens), sequence (Q16630 490-551): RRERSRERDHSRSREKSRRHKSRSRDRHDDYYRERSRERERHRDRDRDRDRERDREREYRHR
molecule,measurement,setting,value
"SR/RS-NLS of SRSF1, residues 195-211, phosphorylated in vitro by SRPK1 (from UniProt Q07955 195-211) (domain or fragment)",Kd,[1],2420 nM
TNPO3 (from UniProt Q9Y5L0),Kd,[2],3400 nM
same,Kd,[3],1300 nM
"pSRSF1^RS: SRSF1^RS phosphorylated in vitro using recombinant SRPK1 (DGPRSPSYGRSRSRSRS; also: multiple phosphoserines, sites not listed) [reference compound]",Kd,TNPO3 WT; replicate 1 (rep1),2490 ± 400 nM
same,Kd,TNPO3 WT; replicate 2 (rep2),2460 ± 500 nM
same,ΔS,TNPO3 WT; replicate 1 (rep1),–9.12 cal/mol/deg
same,ΔS,TNPO3 WT; replicate 2 (rep2),–34.0 cal/mol/deg
same,"spectral changes of 15N-labeled cargo upon addition of TNPO3 (1H,15N HSQC)","TNPO3; 60 µM cargo, one stoichiometric equivalent of TNPO3, 298 K",extensive line broadening of several NMR signals
same,"chemical shift perturbations of TNPO3 methyl groups upon ligand addition (1H,13C HMQC)","TNPO3; 100 µM [IM-methyl 13C] labeled TNPO3, one stoichiometric equivalent of ligand, 298 K","led to CSPs of several TNPO3 ^1H,^13C cross-peaks"
B1,binding result,[4],binds
